EC50 data for two molecules are collected here from patent US20170106084A1.

In the assay the target is T1, human tau(pS422) fragment SEQ ID NO: 03 (human).
T1 sequence (peptide, phosphoserine at 422 (tau numbering); biotinylated): SIDMVDXPQLATLAD
In words: ELISA, coated antigen.

B1: VH00/VL00 (antibody, V domains shown)
VH: QSVEESGGRLVTPGTPLTLTCTVSGFSLSSNAINWVRQAPGKGLEWIGYIAVSGNTYYASWAKGRFTISKASTTVDLKMTSPTAEDTGTYFCGKSNIWGPGTLVTVSL
VL: AQVLTQTTSPVSAAVGSTVTISCQSSQSVRTNKLAWFQQKPGQPPKRLIYSASTLDFGVPSRFSASGSGTQFTLTISDVQCDDAATYYCLGYFDCSIADCVAFGGGTEVVVK
B1: the half-maximal effective concentration (EC50) turned out to be 6.3 ng/mL.

B2: VH32/VL22 (antibody, V domains shown)
VH: EVQVLESGGGLVQPGGSLRLSCAVSGFSLSSNAINWVRQAPGKGLEWVGYIAVSGNTYYASWAKGRFTISRDNSKNTVYLQMNSLRAEDTAVYYCGKSNIWGQGTLVTVSS
VL: AQVMTQSPSSLSASVGDRVTITCRSSQSVRTNRLAWFQQKPGQPPKRLIYSASTLDYGVPSRFSGSGSGTEFTLTISSLQPEDFATYYCLGYFDSSADIVAFGGGTKVEIK
In the case of B2, the EC50 was determined as 5.6 ng/mL.

For orientation: EC50 means the concentration that produces a half-maximal response. Read a low EC50 as greater potency.
